Among the data in article doi:10.1101/059451 are fold more TNPO1 co-IPed in the presence of Rab8-T22N than -Q67L or -wt values, retold here.

In this experiment the target is CFF-Myc (UniProt P01732). Nature of the experiment: co-IP.

Take “HA-TNPO1 (from UniProt Q92973 1-898) (natural protein)”: the fold more TNPO1 co-IPed in the presence of Rab8-T22N than -Q67L or -wt was 3 fold.
